Reference: patent US20220064329A1 (Novo Nordisk, published 2022)
Residue numbers refer to the chain shown, from its start.

Legend:
FVII(a) variant N184A = molecular target: T1, FVII(a) variant N184A (human, UniProt P08709 61-466); assay: SPR, ratio of KD to KD of WT
T1 construct: hFVII alanine variant in cell culture supernatant
T1 sequence: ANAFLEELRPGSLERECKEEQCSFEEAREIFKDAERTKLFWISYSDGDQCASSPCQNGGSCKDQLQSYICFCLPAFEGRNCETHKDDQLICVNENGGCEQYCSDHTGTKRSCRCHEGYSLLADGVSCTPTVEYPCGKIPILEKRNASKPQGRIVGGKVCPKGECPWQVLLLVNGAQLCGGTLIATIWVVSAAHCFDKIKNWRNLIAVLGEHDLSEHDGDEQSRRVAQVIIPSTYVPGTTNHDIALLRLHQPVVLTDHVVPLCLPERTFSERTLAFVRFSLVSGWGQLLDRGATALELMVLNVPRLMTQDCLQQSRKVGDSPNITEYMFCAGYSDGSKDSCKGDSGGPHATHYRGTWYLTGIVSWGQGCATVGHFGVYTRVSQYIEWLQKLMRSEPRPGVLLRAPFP

FVII(a) variant M391A = molecular target: T2, FVII(a) variant M391A (human, UniProt P08709 61-466); assay: SPR, ratio of KD to KD of WT
T2 construct: hFVII alanine variant in cell culture supernatant
T2 sequence: T1 sequence with A184N, M391A

FVII(a) variant S119A = molecular target: T3, FVII(a) variant S119A (human, UniProt P08709 61-466); assay: SPR, ratio of KD to KD of WT
T3 construct: hFVII alanine variant in cell culture supernatant
T3 sequence: T1 sequence with S119A, A184N

FVII(a) variant R113A = molecular target: T4, FVII(a) variant R113A (human, UniProt P08709 61-466); assay: SPR, ratio of KD to KD of WT
T4 construct: hFVII alanine variant in cell culture supernatant
T4 sequence: T1 sequence with R113A, A184N

FVII(a) variant V131A = molecular target: T5, FVII(a) variant V131A (human, UniProt P08709 61-466); assay: SPR, Biacore T200, 25 C; FVII(a) variant captured on anti-Gla Ab 4F6, mAb0842(OA) injected
T5 construct: hFVII alanine variant in cell culture supernatant
T5 sequence: T1 sequence with V131A, A184N
Procedure: The running buffer was prepared by diluting 10-fold the 10×HBS-P buffer (supplied by GE Healthcare) and supplemented with 1 mg/ml BSA and 5 mM CaCl2 to give 10 mM HEPES, 150 mM NaCl, 0.05% v/v Polysorbate 20, pH 7.4, 5 mM CaCl2, 1 mg/ml bovine serum albumin (BSA). […] Regeneration of the chip was achieved using 10 mM HEPES, 150 mM NaCl, 20 mM EDTA, 0.05 v/v Polysorbate 20, pH 7.4. Binding data were analysed according to a 1:1 Kinetic model and steady state analysis using BiaEvaluation 4.1 supplied by the manufacturer (Biacore AB, Uppsala, Sweden). Wherever possible, ka, kd and KD values from 1:1 kinetic fitting model are reported. […] An amino acid residue is considered a hot-spot residue if substitution of that amino acid residue with alanine results in an affinity reduction of ten (10) fold or more relative to the wild type.

Fold diff (Variant/WT) (FVII(a) variant N184A): 6.3 fold
Fold diff (Variant/WT) (FVII(a) variant M391A): 0.8 fold
Fold diff (Variant/WT) (FVII(a) variant S119A): 1 fold
Fold diff (Variant/WT) (FVII(a) variant R113A): 1 fold
Kd (FVII(a) variant V131A): 5.22 nM
B1: mAb0842(OA) (antibody, human IgG4 S228P, kappa)
heavy: QVQLQESGPGLVKPSQTLSLTCTVSGYSISSDSAWSWIRQPPGKGLEWIGYIQYSGSTNYNPSLKSRVTISRDTSKNQFSLKLSSVTAADTAVYYCARSVNYYGNSFAVGYWGQGTLVTVSSASTKGPSVFPLAPCSRSTSESTAALGCLVKDYFPEPVTVSWNSGALTSGVHTFPAVLQSSGLYSLSSVVTVPSSSLGTKTYTCNVDHKPSNTKVDKRVESKYGPPCPPCPAPEFLGGPSVFLFPPKPKDTLMISRTPEVTCVVVDVSQEDPEVQFNWYVDGVEVHNAKTKPREEQFNSTYRVVSVLTVLHQDWLNGKEYKCKVSNKGLPSSIEKTISKAKGQPREPQVYTLPPSQEEMTKNQVSLSCAVKGFYPSDIAVEWESNGQPENNYKTTPPVLDSDGSFFLVSRLTVDKSRWQEGNVFSCSVMHEALHNHYTQKSLSLSLGK
light: EIVLTQSPATLSLSPGERATLSCRASQGISDYLHWYQQKPGEAPRLLIKYTSQPATGIPARFSGSGSGTDFTLTISSLEPEDFAVYYCQNGHSFPLTFGQGTKLEIKRTVAAPSVFIFPPSDEQLKSGTASVVCLLNNFYPREAKVQWKVDNALQSGNSQESVTEQDSKDSTYSLSSTLTLSKADYEKHKVYACEVTHQGLSSPVTKSFNRGEC
chain: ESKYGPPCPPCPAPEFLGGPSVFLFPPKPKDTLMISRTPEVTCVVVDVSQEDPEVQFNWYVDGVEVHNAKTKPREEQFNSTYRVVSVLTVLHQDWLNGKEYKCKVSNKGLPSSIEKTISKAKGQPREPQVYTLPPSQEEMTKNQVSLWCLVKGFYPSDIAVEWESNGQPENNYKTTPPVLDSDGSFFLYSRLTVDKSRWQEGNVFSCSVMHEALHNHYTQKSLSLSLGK
notes: also called monovalent humanized 11F2 antibody; one-armed anti-FVII(a) antibody
